Numbering of substitutions follows the chain as printed.
B1: A-Ye-03 (Fc fusion)
chain: QVQLQESGGGLVQAGGSLRLSCAASGFTLDYYAIGWFRQAPGKEREGVLCISSSGETTYYSDSVKGRFTISRDNAKNKVYLQMNSLKPEDTAVYYCGAELLGSGEGCYVWSRDGSYWGQGTQVTVSSTHTCPPCPAPEAAGGPSVFLFPPKPKDTLMISRTPEVTCVVVDVSHEDPEVKFNWYVDGVEVHNAKTKPREEQYNSTYRVVSVLTVLHQDWLNGKEYKCKVSNKALPAPIEKTISKAKGQPREPQVYTLPPSREEMTKNQVSLTCLVKGFYPSDIAVEWESNGQPENNYKTTPPVLDSDGSFFLYSKLTVDKSRWQQGNVFSCSVMHEALHNHYTQKSLSLSPG
B2: A-Ye-13 (Fc fusion)
chain: EVQLQESGGGLVQAGGSLRLSCAASGFTFDDYAIGWFRQAPGKEREGVLCISSSGGSTYYADSVKGRFTISRDNAKNTVYLQMTNLKPEDTAVYLCGAPRDCSYYTGDDYWGQGTQVTVSSTHTCPPCPAPEAAGGPSVFLFPPKPKDTLMISRTPEVTCVVVDVSHEDPEVKFNWYVDGVEVHNAKTKPREEQYNSTYRVVSVLTVLHQDWLNGKEYKCKVSNKALPAPIEKTISKAKGQPREPQVYTLPPSREEMTKNQVSLTCLVKGFYPSDIAVEWESNGQPENNYKTTPPVLDSDGSFFLYSKLTVDKSRWQQGNVFSCSVMHEALHNHYTQKSLSLSPG
B3: A-Ye-25 (Fc fusion)
chain: B2 chain with E1Q, A14V, V64L, Y104L
B4: A-Ye-27 (Fc fusion)
chain: QVQLQESGGGLVQPGGSLRLSCAASGFSLGLYAIGWFRQAPGKEREWVSCIMSSDSSAYYADSVKGRFTVSRDNAKNTVYLQMTNLKPEDTAVYLCGAPRDCSRYSSDDYWGQGTQVTVSSTHTCPPCPAPEAAGGPSVFLFPPKPKDTLMISRTPEVTCVVVDVSHEDPEVKFNWYVDGVEVHNAKTKPREEQYNSTYRVVSVLTVLHQDWLNGKEYKCKVSNKALPAPIEKTISKAKGQPREPQVYTLPPSREEMTKNQVSLTCLVKGFYPSDIAVEWESNGQPENNYKTTPPVLDSDGSFFLYSKLTVDKSRWQQGNVFSCSVMHEALHNHYTQKSLSLSPG
B5: A-Ye-20 (Fc fusion)
chain: B2 chain with E1Q, G107S
B6: L-Yr-13&14-17 (Fc fusion)
chain: QVQLQESGGGLVQAGGSLRLSCAASRSIFSSYVMAWYRQAPGKERELVALIRYGGSTDYADSVKGRFTISRDNSKNTLILQMNSLKPEDTAMYYCAASKSAYIFDDRDYWGQGTQVTVSSTHTCPPCPAPEAAGGPSVFLFPPKPKDTLMISRTPEVTCVVVDVSHEDPEVKFNWYVDGVEVHNAKTKPREEQYNSTYRVVSVLTVLHQDWLNGKEYKCKVSNKALPAPIEKTISKAKGQPREPQVYTLPPSREEMTKNQVSLTCLVKGFYPSDIAVEWESNGQPENNYKTTPPVLDSDGSFFLYSKLTVDKSRWQQGNVFSCSVMHEALHNHYTQKSLSLSPG
B7: A-Ye-14 (Fc fusion)
chain: QVQLQESGGGLVQPGGSLRLSCAASGFSLGLYAIGWFRQAPGKEREWVSCIMSSDSSAYYADSVKGRFTVSRDNAKNTVYLQMNRLKPEDTAVYYCAAPQSDCFHYSENDYWGQGTQVTVSSTHTCPPCPAPEAAGGPSVFLFPPKPKDTLMISRTPEVTCVVVDVSHEDPEVKFNWYVDGVEVHNAKTKPREEQYNSTYRVVSVLTVLHQDWLNGKEYKCKVSNKALPAPIEKTISKAKGQPREPQVYTLPPSREEMTKNQVSLTCLVKGFYPSDIAVEWESNGQPENNYKTTPPVLDSDGSFFLYSKLTVDKSRWQQGNVFSCSVMHEALHNHYTQKSLSLSPG
B8: A-Ye-19 (Fc fusion)
chain: B7 chain with P14A
B9: A-Ye-22 (Fc fusion)
chain: B7 chain with P14A, G30D, L31Y, M52T, S53A, V70I, Q82R, R85S, Q100R, S107G
B10: A-Ye-21 (Fc fusion)
chain: B7 chain with G30D, L31Y, V70I, T78L, Q82R, R85S, A97T, Q100R, S107G
B11: A-Na-16 (Fc fusion)
chain: QVQLVESGGGLVPPGESLRLSCAASGAIFRINTGAWYRQAPGKQRELVASLTTYGKTTYADFVKGRFTISRDDARNTVSLQMNSLKPEDTAIYYCHIGPEPRYGYWGQGTQVTVSSTHTCPPCPAPEAAGGPSVFLFPPKPKDTLMISRTPEVTCVVVDVSHEDPEVKFNWYVDGVEVHNAKTKPREEQYNSTYRVVSVLTVLHQDWLNGKEYKCKVSNKALPAPIEKTISKAKGQPREPQVYTLPPSREEMTKNQVSLTCLVKGFYPSDIAVEWESNGQPENNYKTTPPVLDSDGSFFLYSKLTVDKSRWQQGNVFSCSVMHEALHNHYTQKSLSLSPG
B12: A-Na-19 (Fc fusion)
chain: B11 chain with R75K, S79Y
B13: A-Ye-04 (Fc fusion)
chain: B11 chain with V5Q, R75K
B14: A-Na-18 (Fc fusion)
chain: B11 chain with R75E
B15: L-Yr-13&14-13 (Fc fusion)
chain: QVQLQESGGGLVQAGDSLRLSCAASGSTFSITAMGWYRQPPGKQRELVASIITGDGDTNYADSVKGRFTISRDNAKNTMYLQMNSLKPEDTAVYYCYARTGYGSSWLMGHEYDYWGQGTQVTVSSTHTCPPCPAPEAAGGPSVFLFPPKPKDTLMISRTPEVTCVVVDVSHEDPEVKFNWYVDGVEVHNAKTKPREEQYNSTYRVVSVLTVLHQDWLNGKEYKCKVSNKALPAPIEKTISKAKGQPREPQVYTLPPSREEMTKNQVSLTCLVKGFYPSDIAVEWESNGQPENNYKTTPPVLDSDGSFFLYSKLTVDKSRWQQGNVFSCSVMHEALHNHYTQKSLSLSPG
B16: L-Yr-13&14-11 (Fc fusion)
chain: B15 chain with S50A, T53M, G54S, A61Q, P88L, S105G, W106R
B17: L-Yr-13&14-12 (Fc fusion)
chain: B15 chain with S50A, T53M, G54S, A61Q, S105G, M108E
B18: L-Yr-13&14-07 (Fc fusion)
chain: B15 chain with S30G, S50A, T53M, G54S, A61Q, P88L, S105G, W106R
B19: L-Yr-13&14-02 (Fc fusion)
chain: QVQLQESGGGLVQAGGSLRLSCAASGGTFSITAMGWYRQAPGQQRELVAAIASGDGATNYADFVKGRFTISRDNAKNTMFLQMNSLKPEDSAVYYCYARTGYGSSWPMGHEYDYWGQGTQVTVSSTHTCPPCPAPEAAGGPSVFLFPPKPKDTLMISRTPEVTCVVVDVSHEDPEVKFNWYVDGVEVHNAKTKPREEQYNSTYRVVSVLTVLHQDWLNGKEYKCKVSNKALPAPIEKTISKAKGQPREPQVYTLPPSREEMTKNQVSLTCLVKGFYPSDIAVEWESNGQPENNYKTTPPVLDSDGSFFLYSKLTVDKSRWQQGNVFSCSVMHEALHNHYTQKSLSLSPG
B20: L-Yr-13&14-08 (Fc fusion)
chain: QVQLQESGGGLVQPGGSLRLSCAASGSTFSISAMGWYRQPPGKQRELVALIIMSDGDTNYQDSVKGRFTISRDNANNTMYLQMNSLKLEDTAVYYCYARTGYGSGRLMGHEYDYWGQGTQVTVSSTHTCPPCPAPEAAGGPSVFLFPPKPKDTLMISRTPEVTCVVVDVSHEDPEVKFNWYVDGVEVHNAKTKPREEQYNSTYRVVSVLTVLHQDWLNGKEYKCKVSNKALPAPIEKTISKAKGQPREPQVYTLPPSREEMTKNQVSLTCLVKGFYPSDIAVEWESNGQPENNYKTTPPVLDSDGSFFLYSKLTVDKSRWQQGNVFSCSVMHEALHNHYTQKSLSLSPG
B21: L-Yr-13&14-10 (Fc fusion)
chain: B19 chain with G27S, P107L
B22: L-Yr-13&14-09 (Fc fusion)
chain: B15 chain with D16G, R19K, T32S, P40A, S50A, I52V, T53I

Target: T1, 4-1BB antigen (human, UniProt Q07011 24-186, limits assumed)
T1 construct: also called human 4-1BB antigen; human 4-1BB protein
T1 sequence (Q07011 24-186 limits assumed): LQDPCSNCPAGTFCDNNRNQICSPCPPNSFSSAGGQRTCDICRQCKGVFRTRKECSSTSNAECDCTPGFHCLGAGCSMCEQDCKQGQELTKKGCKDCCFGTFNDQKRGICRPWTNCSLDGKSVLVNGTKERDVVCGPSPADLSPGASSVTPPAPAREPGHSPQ
Assay: BLI (ForteBio), antibody on AHQ sensor, 100 nM 4-1BB antigen, 1:1 model
Method: ForteBio affinity determination was performed according to the existing method (Estep, P et al., Solution-based measurement of high-throughput antibody-antigen affinity and epitope classification, MAbs, 2013.5(2):p. 270-8). Briefly, the sensor was equilibrated offline for 30 min in the assay buffer, then the baseline was established by detection online for 60 s, and the purified antibody obtained as described above was loaded onto the AHQ sensor online. Then, the sensor was put into 100 nM 4-1BB antigen to act for 5 minutes, and the sensor was transferred to PBS and dissociated for 5 minutes. Analysis of kinetics was performed using a 1:1 binding model.

Row | Kd | Binder
1 | 28.3 nM | B1
2 | 11.9 nM | B2
3 | 13.5 nM | B3
4 | 7.55 nM | B4
5 | 26.8 nM | B5
6 | 25.1 nM | B6
7 | 14.5 nM | B7
8 | 13 nM | B8
9 | 22.6 nM | B9
10 | 23 nM | B10
11 | 20.8 nM | B11
12 | 15.1 nM | B12
13 | 222 nM | B13
14 | 17.5 nM | B14
15 | 23.2 nM | B15
16 | 21.6 nM | B16
17 | 30.8 nM | B17
18 | 14.3 nM | B18
19 | 44.7 nM | B19
20 | 20.5 nM | B20
21 | 46 nM | B21
22 | 21 nM | B22

Reference: patent US20230357422A1 (published 2023)
